For 1 substance, fold change of immunoprecipitable Sis1:slGFP complexes in Δhsp104 against WT results are on record in article PMC3547041.

The assay deals with Type II Hsp40 Sis1 (S. cerevisiae (endogenous in yeast)) (UniProt P25294). The assay can be described thus: co-IP; yeast cell extracts in Buffer A (150 mM NaCl, 50 mM Hepes pH 7.4, 1 mM EDTA, 0.1% Triton X-100), indicated antisera 1 hour at 4°C, Protein G beads, immunoblotting; extracts with or without Apyrase (Ssa1); WT or Δhsp104 strain (Sis1).
Sequence of UniProt P25294 (P25294 whole entry): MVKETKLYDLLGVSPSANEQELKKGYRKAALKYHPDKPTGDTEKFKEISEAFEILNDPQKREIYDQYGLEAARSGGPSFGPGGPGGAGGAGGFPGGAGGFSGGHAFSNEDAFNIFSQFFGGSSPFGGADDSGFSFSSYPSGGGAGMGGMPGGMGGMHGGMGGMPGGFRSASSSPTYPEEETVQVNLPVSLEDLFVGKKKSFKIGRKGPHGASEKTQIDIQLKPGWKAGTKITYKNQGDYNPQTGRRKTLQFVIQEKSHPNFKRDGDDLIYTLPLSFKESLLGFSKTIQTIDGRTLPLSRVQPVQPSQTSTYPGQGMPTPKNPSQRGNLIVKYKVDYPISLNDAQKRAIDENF

In turn, short-lived GFP (slGFP) yielded a fold change of immunoprecipitable Sis1:slGFP complexes in Δhsp104 against WT of 1.5 fold.
